Measured values published in publication PMC9524831 (Science Advances, 2022).
Residue numbers refer to the chain shown, from its start. Numbers in names are those of the source.

Molecular target: HA-GluA1 (mouse AMPA receptor subunit GluA1) (mouse, UniProt P23818 19-907)
Test: cell-based or functional assay

Sequence of HA-GluA1 (mouse AMPA receptor subunit GluA1) (P23818 19-907): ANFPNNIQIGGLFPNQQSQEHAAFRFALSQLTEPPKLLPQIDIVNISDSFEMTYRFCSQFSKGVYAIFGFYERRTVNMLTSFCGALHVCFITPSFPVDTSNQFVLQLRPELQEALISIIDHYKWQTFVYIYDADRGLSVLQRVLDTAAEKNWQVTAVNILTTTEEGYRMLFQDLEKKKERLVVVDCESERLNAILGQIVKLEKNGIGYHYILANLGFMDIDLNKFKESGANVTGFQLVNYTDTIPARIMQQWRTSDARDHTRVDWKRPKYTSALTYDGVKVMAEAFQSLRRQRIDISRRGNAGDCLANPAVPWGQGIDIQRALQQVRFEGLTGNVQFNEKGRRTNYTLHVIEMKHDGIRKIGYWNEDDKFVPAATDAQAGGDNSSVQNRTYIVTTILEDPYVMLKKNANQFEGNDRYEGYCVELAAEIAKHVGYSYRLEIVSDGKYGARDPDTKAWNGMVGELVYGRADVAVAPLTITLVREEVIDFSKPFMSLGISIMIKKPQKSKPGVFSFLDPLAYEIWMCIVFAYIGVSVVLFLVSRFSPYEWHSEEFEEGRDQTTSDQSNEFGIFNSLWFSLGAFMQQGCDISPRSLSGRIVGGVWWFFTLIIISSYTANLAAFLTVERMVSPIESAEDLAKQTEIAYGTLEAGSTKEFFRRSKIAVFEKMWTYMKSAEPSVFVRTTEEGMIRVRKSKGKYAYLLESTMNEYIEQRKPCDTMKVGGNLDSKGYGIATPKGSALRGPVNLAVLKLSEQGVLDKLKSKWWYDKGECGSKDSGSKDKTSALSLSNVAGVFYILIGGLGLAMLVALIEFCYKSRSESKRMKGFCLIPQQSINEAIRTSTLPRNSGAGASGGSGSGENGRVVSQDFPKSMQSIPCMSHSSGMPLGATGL

B1: RNF220(R363Q) (enzyme, mouse, UniProt Q6PDX6 1-566, looked up)
chain: MDLHRAAFKMENSSYLPNPLASPALMVLASTAEASRDASIPCQQPRPFGVPVSVDKDVHIPFTNGSYTFASMYHRQGGVPGTFANRDFPPSLLHLHPQFAPPNLDCTPISMLNHSGVGAFRPFASTEDRESYQSAFTPAKRLKNCHDTESPHLRFSDADGKEYDFGTQLPSSSPGSLKVDDTGKKIFAVSGLISDRETSSSPEDRNDRCKKKAVALFDSQAPLCPICQVLLRPSELQEHMEQELEQLAQLPASKNSLLKDAMAPGTPKSLLLSASIKREGDSPTASPHSSATEDLHHSDRYQTFLRVRANRQTRLNARIGKMKRRKQDEGQREGSCMAEDDAVDIEHADSNRFEEYEWCGQKQIRATTLLEGGFRGSGFVMCSGKENPDSDADLDVDGDDTLEYGKPQYTEADVIPCTGEEPGEAKEREALRGAVLNGGPPSTRITPEFSKWASDEMPSTSNGEGSKQEAMQKTCKNSDIEKITEESAVTTFEALKARVRELERQLSRGDRYKCLICMDSYSMPLTSIQCWHVHCEECWLRTLGAKKLCPQCNTITAPGDLRRIYL
- GluA1 polyubiquitination level relative to wild-type RNF220 transfection: 0.34

B2: RNF220(R365Q) (enzyme, mouse, UniProt Q6PDX6 1-566, looked up)
chain: B1 chain with Q363R, R365Q
- GluA1 polyubiquitination level relative to wild-type RNF220 transfection: 0.3
